Source: patent US20240301071A1
Blank lines part the entries; values can stand above or below the binder they belong to.

Assays:
[1] = target: SIRPA v2 (CAA71403.1) (human) (UniProt P78324); assay: ELISA, plate coated with SIRP protein
SIRPB1-Fc iso. 3 (human) = SIRPB1-Fc iso. 3 (human) (UniProt Q5TFQ8); assay: ELISA, plate coated with SIRP protein
[2] = target: SIRPB1-His iso. 3 (human) (UniProt Q5TFQ8); assay: ELISA, plate coated with SIRP protein
[3] = target: T1, human SIRPA on human macrophages (primary monocyte-derived macrophages; U937 line) (human), P78324
[4] = target: T1, human SIRPA on human macrophages …; assay: cell-based or functional assay
[5] = target: huSIPRA v.1 CAA71403.1 (human) (UniProt P78324); assay: ELISA, plate coated with tagged SIRPA at 1 ug/mL
[6] = target: human SIRPA on human macrophages (primary monocyte-derived macrophages; U937 line) (human) (UniProt P78324); assay: cell-based or functional assay
Chain of human SIRPA on human macrophages (primary monocyte-derived macrophages; U937 line) (human) (P78324 31-504): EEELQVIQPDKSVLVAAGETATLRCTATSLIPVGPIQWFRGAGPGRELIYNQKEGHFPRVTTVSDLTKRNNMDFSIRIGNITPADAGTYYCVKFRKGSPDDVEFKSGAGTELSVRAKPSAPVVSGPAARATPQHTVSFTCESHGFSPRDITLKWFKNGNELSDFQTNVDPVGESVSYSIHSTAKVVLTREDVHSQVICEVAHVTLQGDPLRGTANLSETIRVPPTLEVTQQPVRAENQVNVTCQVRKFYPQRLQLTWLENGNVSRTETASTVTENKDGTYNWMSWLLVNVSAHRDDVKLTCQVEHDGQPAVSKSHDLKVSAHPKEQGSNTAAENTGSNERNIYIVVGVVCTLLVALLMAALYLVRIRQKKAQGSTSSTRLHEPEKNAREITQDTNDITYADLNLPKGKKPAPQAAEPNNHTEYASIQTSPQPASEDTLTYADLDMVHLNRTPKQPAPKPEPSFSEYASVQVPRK

T1 sequence (P78324 31-504): as above
Chain of SIRPB1-Fc iso. 3 (human) (Q5TFQ8 30-371): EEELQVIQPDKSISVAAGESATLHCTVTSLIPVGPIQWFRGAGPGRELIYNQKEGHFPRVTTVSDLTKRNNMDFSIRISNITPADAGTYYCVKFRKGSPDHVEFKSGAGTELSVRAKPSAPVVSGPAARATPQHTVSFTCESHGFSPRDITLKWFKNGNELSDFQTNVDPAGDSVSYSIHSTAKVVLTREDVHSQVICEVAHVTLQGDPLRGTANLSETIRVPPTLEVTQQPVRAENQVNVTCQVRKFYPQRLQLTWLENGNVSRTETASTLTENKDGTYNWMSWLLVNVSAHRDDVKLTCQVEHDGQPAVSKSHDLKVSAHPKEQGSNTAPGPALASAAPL
Chain of SIRPB1-His iso. 3 (human) (Q5TFQ8 30-371): as above

EC50 [1]: 0.358 nM
EC50 (SIRPB1-Fc iso. 3 (human)): 0.382 nM
EC50 [2]: 0.425 nM
B1: anti-SIRPA antibody 9C2 (antibody, V domains shown)
VH: EFQLQQSGAELVKPGASVKISCKASGYSLTGYNMNWVKQSRGKSLEWIGNINPHYGSSTYNQNFKDKATLTVDKSSSAAYMQFNSLTSEDSAVYYCAREGYDGVFDYWGQGTTLTVSS
VL: QIVLSQSPAILSASPGEKVTMTCRASSSVSYMHWYQQKPGSSPKPWIYVTSNLASGVPTRFSGSGSGTSYSLTISRVEAEDAATYYCQQWSSNPRTFGGGTKLEIK

IC50 (read off the curve), SIRPA downregulation on primary human macrophages, Dnr. 414 [3]: 0.04 nM
EC50 [1]: 0.353 nM
EC50 (SIRPB1-Fc iso. 3 (human)): 0.319 nM
EC50 [2]: 0.435 nM
Phagocytosis, fold increase over baseline activity [4]: 1.51 fold
SIRPA IC50 (nM), downregulation on U937 cells [4]: 0.105 nM
SIRPA IC50 (nM), downregulation on human primary macrophages [4]: 0.00905 nM
SIRPA Max % DR, U937 cells [4]: 75%
SIRPA Max % DR, human primary macrophages [4]: 89%
SIRPA downregulation on primary human macrophages, Donor 413 (flow cytometry) [4]: 90%
SIRPA downregulation on primary human macrophages, Donor 414 (flow cytometry) [4]: 85%
EC50 [5]: 0.789 nM
B2: mouse anti-SIRPA antibody m3F9 (antibody, mouse IgG1, V domains shown)
VH: EVKLVESGGGLVKPGGSLKLSCAASGFTFSSYAMSWVRQTPEKRLEWVATISDYGGSYTYYPDSVKGRFTISRDNAKYTLYLQMSSLRSEDTALYYCARPPYDDYYGGFAYWGQGTLVTVSA
VL: DIVLTQSPASLAVSLGQRATISCRASKSVSSSGYSYMHWYQQKPGQPPKLLIYLASNLESGVPARFSGSGSGTDFTLNIHPVEEEDAATYYCQHNRELPCTFGGGTKLEIK

IC50 (read off the curve), SIRPA downregulation on primary human macrophages, Dnr. 413 [3]: 0.07 nM
SIRPA downregulation on primary human macrophages, Donor 413 (flow cytometry) [4]: 70%
SIRPA downregulation on primary human macrophages, Donor 414 (flow cytometry) [4]: 75%
B3: deglycosylated m3F9 anti-SIRPA antibody (antibody, mouse IgG1, V domains shown)
VH: B2 VH
VL: B2 VL
modifications: here or on the partner: Fc glycan on Asn297 removed enzymatically with EndoS

Phagocytosis, fold increase over baseline activity [4]: 1.77 fold
SIRPA IC50 (nM), downregulation on U937 cells [4]: 0.804 nM
SIRPA IC50 (nM), downregulation on human primary macrophages [4]: 0.172 nM
SIRPA Max % DR, U937 cells [4]: 68%
SIRPA Max % DR, human primary macrophages [4]: 90%
B4: chimeric anti-SIRPA antibody 3F9 huIgG1 (antibody, V domains shown)
VH: B2 VH
VL: B2 VL

EC50 (nM), phagocytosis of A375 cells by primary human macrophages [6]: 2.15 nM
Max, fold increase in phagocytosis over baseline activity [6]: 1.06 fold
B5: anti-SIRPA antibody 18D5 (antibody, from another filing, V domains shown)
VH: QVQLQQPGAELVRPGSSVKLSCKASGYTFTSYWVHWVKQRPIQGLEWIGNIDPSDSDTHYNQKFKDKASLTVDKSSSTAYMQLSSLTFEDSAVYYCVRGGTGTMAWFAYWGQGTLVTVSA
VL: DVVMTQTPLSLPVSLGDQASISCRSSQSLVHSYGNTYLYWYLQKPGQSPKLLIYRVSNRFSGVPDRFSGSGSGTDFTLKISRVEAEDLGVYFCFQGTHVPYTFGSGTKLEIKR
